Reference: patent publication US20240116985A1 (published 2024)
Starred links: 1 amine or outer side, 2 acyl side, 3 side chain; linkers in the order of their positions; H or OH if unused. Positions of bridges follow the written chain, without caps; N, C: chain ends. Non-standard residues stand in square brackets, D forms with d. Primed or numbered codes have the meaning given here. PyrS2″ = (S)-3-amino-1-((pent-4-en-1-yloxy)carbonyl)pyrrolidine-3-carboxylic acid (stapling residue), C=CCCCOC(=O)N1CC[C@@](N[*:1])(C(=O)[*:2])C1; B5(16) = 2-amino-2-(pent-4-en-1-yl)hept-6-enoic acid = 2,2-bis(4-pentenyl)glycine (stitching residue), C=CCCCC(CCCC=C)(N[*:1])C(=O)[*:2]; B5(4) = 2,2-bis(4-pentenyl)glycine = 2-amino-2-(pent-4-en-1-yl)hept-6-enoic acid (stitching residue), C=CCCCC(CCCC=C)(N[*:1])C(=O)[*:2]; PyrS2 = (S)-3-amino-1-((pent-4-en-1-yloxy)carbonyl)pyrrolidine-3-carboxylic acid, C=CCCCOC(=O)N1CC[C@@](N[*:1])(C(=O)[*:2])C1; B5(19) = 2-amino-2-(pent-4-en-1-yl)hept-6-enoic acid (bis(4-pentenyl)glycine), C=CCCCC(CCCC=C)(N[*:1])C(=O)[*:2]; B5 = 2-amino-2-(pent-4-en-1-yl)hept-6-enoic acid, C=CCCCC(CCCC=C)(N[*:1])C(=O)[*:2]; Phe(2-Cl) = N[C@@H](Cc1ccccc1Cl)C(=O)O; Bta = N[C@@H](Cc1csc2ccccc12)C(=O)O; αAllylPro = C=CC[C@@]1(C(=O)O)CCCN1; hSer = N[C@@H](CCO)C(=O)O

B1: I-1041 (peptide)
peptide: Ac-[αAllylPro]DF[B5(16)]DDAAFN[PyrS2″][Phe(2-Cl)][Bta]Q-NH2
modifications: staple 1-4, 4-11
notes: also called Ac-PL3-Asp-Phe-B5-Asp-Asp-Ala-Ala-Phe-Asn-PyrS2-2C1F-BztA-Gln-NH2
B2: I-1143 (peptide)
peptide: Ac-[αAllylPro]DF[B5]DDAAFS[PyrS2][Phe(2-Cl)][Bta][hSer]-NH2
modifications: staple 1-4, 4-11
notes: Stapled (stitched) peptide by olefin metathesis; E/Z isomer(s) of the staples not assigned
B3: I-1144 (peptide)
peptide: Ac-[αAllylPro]DF[B5]DDAAFS[PyrS2][Phe(2-Cl)][Bta]L-NH2
modifications: staple 1-4, 4-11
notes: as for B2
B4: I-1145 (peptide)
peptide: Ac-[αAllylPro]DF[B5]DDAAFL[PyrS2][Phe(2-Cl)][Bta]T-NH2
modifications: staple 1-4, 4-11
notes: as for B2
B5: I-1146 (peptide)
peptide: Ac-[αAllylPro]DF[B5]DDAAFL[PyrS2][Phe(2-Cl)][Bta][dT]-NH2
modifications: staple 1-4, 4-11
notes: as for B2
B6: I-1142 (peptide)
peptide: Ac-[αAllylPro]DF[B5]DDAAFS[PyrS2][Phe(2-Cl)][Bta][dT]-NH2
modifications: staple 1-4, 4-11
notes: as for B2

The binders below were run against T1, B-cat-Halo (UniProt P35222 1-781) (assay: cell-based or functional assay).
T1 sequence (looked up): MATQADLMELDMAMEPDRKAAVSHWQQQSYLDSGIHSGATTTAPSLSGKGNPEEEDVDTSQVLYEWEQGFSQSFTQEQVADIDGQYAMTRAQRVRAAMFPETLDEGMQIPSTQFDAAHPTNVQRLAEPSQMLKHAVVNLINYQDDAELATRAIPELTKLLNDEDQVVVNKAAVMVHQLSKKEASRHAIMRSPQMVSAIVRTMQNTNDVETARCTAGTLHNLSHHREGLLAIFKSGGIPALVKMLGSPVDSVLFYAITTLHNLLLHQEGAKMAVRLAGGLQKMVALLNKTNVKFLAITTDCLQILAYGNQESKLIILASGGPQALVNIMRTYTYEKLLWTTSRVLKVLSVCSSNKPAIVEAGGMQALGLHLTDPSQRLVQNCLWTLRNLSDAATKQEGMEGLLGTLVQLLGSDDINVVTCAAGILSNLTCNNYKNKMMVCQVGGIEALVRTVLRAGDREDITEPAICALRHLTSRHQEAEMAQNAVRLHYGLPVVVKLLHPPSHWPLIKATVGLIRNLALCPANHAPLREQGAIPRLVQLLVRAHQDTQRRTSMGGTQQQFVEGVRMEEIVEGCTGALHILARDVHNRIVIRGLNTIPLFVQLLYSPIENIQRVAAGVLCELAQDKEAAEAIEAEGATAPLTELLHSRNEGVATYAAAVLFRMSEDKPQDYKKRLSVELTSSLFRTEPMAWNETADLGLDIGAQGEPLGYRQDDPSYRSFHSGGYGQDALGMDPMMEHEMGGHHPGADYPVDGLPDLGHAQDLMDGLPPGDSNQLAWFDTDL
For B1, the “NanoBRET Abs IC50” value was > 20000 nM.

The binders below were run against T2, full-length beta-Catenin (Uniprot ID P35222) (Homo sapiens (Human), UniProt P35222 2-781) (assay: fluorescence polarization competition, 5FAM-TCF4 10-53 probe on full-length beta-catenin).
T2 construct: also called bCat; B-Catenin
T2 sequence: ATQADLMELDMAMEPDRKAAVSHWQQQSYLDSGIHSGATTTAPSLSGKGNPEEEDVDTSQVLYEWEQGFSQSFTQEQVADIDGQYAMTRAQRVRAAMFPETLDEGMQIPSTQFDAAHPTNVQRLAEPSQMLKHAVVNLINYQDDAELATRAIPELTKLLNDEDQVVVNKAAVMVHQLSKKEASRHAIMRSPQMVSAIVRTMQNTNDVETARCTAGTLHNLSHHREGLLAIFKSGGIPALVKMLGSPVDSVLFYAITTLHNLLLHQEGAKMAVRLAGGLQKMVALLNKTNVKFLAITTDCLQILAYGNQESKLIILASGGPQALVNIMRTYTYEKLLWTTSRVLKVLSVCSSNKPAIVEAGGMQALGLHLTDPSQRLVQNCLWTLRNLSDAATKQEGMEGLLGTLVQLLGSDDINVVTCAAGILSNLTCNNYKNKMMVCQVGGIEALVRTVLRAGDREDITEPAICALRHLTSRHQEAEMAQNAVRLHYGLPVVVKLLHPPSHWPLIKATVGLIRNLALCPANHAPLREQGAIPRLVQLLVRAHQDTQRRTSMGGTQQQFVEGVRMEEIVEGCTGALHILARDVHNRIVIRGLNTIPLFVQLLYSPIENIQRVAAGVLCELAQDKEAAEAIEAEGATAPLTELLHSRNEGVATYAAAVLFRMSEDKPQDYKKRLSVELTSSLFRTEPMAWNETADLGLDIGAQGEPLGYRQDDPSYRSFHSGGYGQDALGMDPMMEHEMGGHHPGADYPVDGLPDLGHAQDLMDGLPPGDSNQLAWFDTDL
Method: (§1) The plate was incubated protected from light for 60 minutes at 20° C. prior to read. Reads were performed on a CLARIOstar plate reader (BMG Labtech) in duplicate, and data were fitted to a 1:1 binding model with hill slope using an in-house script. All provided concentrations are final concentrations.
An EC50 of 12 nM was found for B2 in this work. An EC50 of 28 nM was found for B3 in this work. An EC50 of 18 nM was found for B4 in this work. An EC50 of 33 nM was found for B5 in this work. An EC50 of 22 nM was found for B6 in this work.

These binders were tested against T3, beta-catenin (Homo sapiens (Human), UniProt P35222 1-781) (assay: fluorescence polarization competition; full-length beta-catenin with 5FAM-TCF4(10-53) probe as competitor).
T3 construct: The FP protocol says full-length beta-Catenin (Uniprot ID P35222); also called full-length beta-Catenin; bCat
T3 sequence: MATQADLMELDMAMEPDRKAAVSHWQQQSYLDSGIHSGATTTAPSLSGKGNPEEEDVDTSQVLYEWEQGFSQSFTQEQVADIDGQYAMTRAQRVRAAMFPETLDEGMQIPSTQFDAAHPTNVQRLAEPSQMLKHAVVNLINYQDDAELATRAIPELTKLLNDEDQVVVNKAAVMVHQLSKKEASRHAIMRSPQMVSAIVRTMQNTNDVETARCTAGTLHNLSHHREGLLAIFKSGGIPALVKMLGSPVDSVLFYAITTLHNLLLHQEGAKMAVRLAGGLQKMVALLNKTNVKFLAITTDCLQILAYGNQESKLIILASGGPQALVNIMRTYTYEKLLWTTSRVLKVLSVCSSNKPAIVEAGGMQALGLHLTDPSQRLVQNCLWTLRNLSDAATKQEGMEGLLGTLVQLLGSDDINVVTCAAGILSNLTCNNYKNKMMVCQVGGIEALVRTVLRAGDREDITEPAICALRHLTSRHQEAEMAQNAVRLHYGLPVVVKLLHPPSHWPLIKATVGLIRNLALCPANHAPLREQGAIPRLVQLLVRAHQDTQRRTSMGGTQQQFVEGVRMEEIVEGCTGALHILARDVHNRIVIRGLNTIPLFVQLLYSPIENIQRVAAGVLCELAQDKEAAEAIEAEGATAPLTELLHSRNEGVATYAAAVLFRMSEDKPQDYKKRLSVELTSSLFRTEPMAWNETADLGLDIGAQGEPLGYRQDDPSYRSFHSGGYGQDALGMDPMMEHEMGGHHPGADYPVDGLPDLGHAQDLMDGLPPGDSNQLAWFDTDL
Procedure, shortened: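 Plate incubated 60 minutes at 20° C. protected from light before reading. Concentrations given are final.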
An EC50 of 106 nM was found for Ac-[αAllylPro]DL[B5(4)]DDAAFL[PyrS2″][Phe(2-Cl)][Bta]L-NH2 (staple 1-4, 4-11; also: staple isomer composition of earlier HPLC peak, stapled peptide) [I-1418] in this work. An EC50 of 9 nM was found for Ac-[αAllylPro]DL[B5(19)]DDAAFL[PyrS2]F[Bta]Q-NH2 (staple 1-4, 4-11, stapled peptide) [I-1402] in this work. An EC50 of 388 nM was found for Ac-[αAllylPro]DN[B5(4)]DDAAFL[PyrS2″][Phe(2-Cl)][Bta]L-NH2 (staple 1-4, 4-11, stapled peptide) [I-1422] in this work.

What follows are binders tested against T4, full-length beta-Catenin (Uniprot ID P35222) (Homo sapiens (Human), UniProt P35222 1-781) (assay: fluorescence polarization competition; full-length beta-catenin with 5FAM-TCF4(10-53) probe, peptide titrated).
T4 construct: Tags are not described; Also used here as the target of the DLD1 TCF reporter read-out (endogenous beta-catenin in DLD1 cells); also called bCat; B-Catenin
T4 sequence: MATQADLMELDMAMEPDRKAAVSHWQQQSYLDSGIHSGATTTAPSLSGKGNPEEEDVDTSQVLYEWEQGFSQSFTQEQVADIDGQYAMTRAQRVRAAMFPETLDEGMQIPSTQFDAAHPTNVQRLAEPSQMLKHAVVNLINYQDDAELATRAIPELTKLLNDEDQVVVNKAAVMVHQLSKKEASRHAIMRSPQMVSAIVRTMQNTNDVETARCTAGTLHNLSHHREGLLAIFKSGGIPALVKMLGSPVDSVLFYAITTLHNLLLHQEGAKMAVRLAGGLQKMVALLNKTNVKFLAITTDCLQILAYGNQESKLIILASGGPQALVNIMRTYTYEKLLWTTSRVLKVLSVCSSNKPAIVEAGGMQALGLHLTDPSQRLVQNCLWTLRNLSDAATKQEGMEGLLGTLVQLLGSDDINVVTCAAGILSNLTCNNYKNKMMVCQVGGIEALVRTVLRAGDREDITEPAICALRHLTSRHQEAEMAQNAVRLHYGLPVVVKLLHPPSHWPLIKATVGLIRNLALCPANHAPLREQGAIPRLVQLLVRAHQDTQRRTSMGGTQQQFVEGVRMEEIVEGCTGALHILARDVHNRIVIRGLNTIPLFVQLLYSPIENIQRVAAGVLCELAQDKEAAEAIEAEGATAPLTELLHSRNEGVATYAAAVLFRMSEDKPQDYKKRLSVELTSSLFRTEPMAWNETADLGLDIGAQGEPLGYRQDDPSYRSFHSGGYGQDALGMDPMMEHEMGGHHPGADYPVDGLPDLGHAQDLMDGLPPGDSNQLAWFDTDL
Method: as §1
An IC50 of 8 nM was found for B1 in this work.
